“And” between values parts separate entries of the source, which are not always exact repeats. Equal entries are not always repeated. Blank lines part the entries; values can stand above or below the substance they belong to.
Tests used:
[1] = molecular target: recombinant bAα374-568 fragment corresponding to the full-length bovine fibrinogen αC-domain (bovine); assay: AUC
[2] = molecular target: recombinant bAα374-568 fragment corresponding to the full-length bovine fibrinogen αC-domain (bovine); assay: SEC
[3] = molecular target: recombinant hAα392-610 fragment corresponding to the full-length human fibrinogen αC-domain (human); assay: AUC
[4] = molecular target: recombinant hAα392-610 fragment corresponding to the full-length human fibrinogen αC-domain (human); assay: SEC
[5] = molecular target: recombinant human hAα425-503 fragment, truncated variant of the human fibrinogen αC-domain (human); assay: AUC
[6] = molecular target: recombinant human hAα425-503 fragment, truncated variant of the human fibrinogen αC-domain (human); assay: SEC

Ka [1]: 26100 M⁻¹ | Kd [1]: 38.3 µM | oligomers (%) at 1.8 mg/mL, 0.15 M NaCl [2]: 9.5% | oligomers (%) at 3.7 mg/mL, 0.15 M NaCl [2]: 27.2% | oligomers (%) at 3.8 mg/mL, 2.0 M NaCl [2]: 54.4%
Substance: recombinant bAα374-568 fragment corresponding to the full-length bovine fibrinogen αC-domain (domain or fragment)

Ka [3]: 83200 M⁻¹ | Kd [3]: 12 µM | stoichiometry N [3]: 11.3 | oligomers (%) at 1.9 mg/mL, 0.15 M NaCl [4]: 15.4% | oligomers (%) at 3.8 mg/mL, 0.15 M NaCl [4]: 32% | oligomers (%) at 4.0 mg/mL, 2.0 M NaCl [4]: 58.5%
Substance: recombinant hAα392-610 fragment corresponding to the full-length human fibrinogen αC-domain (domain or fragment)

Kd [5]: 1140 µM | oligomers (%) at 1.6 mg/mL, 2.0 M NaCl [6]: 43.6% | oligomers (%) at 3.2 mg/mL, 0.15 M NaCl [6]: 1.7% | oligomers (%) at 3.2 mg/mL, 1.0 M NaCl [6]: 26.2% | oligomers (%) at 6.3 mg/mL, 0.15 M NaCl [6]: 6.6% | stoichiometry N [6]: 5 and 6
Substance: recombinant human hAα425-503 fragment, truncated variant of the human fibrinogen αC-domain (domain or fragment)

From PMC2812052
